Experimental findings from patent US20230087600A1 are described below.

The assay has as its target T1, mouse IL-10 receptor (IL-10R) on T cells and B cells of C57BL/6 mouse splenocytes (mouse) (UniProt Q61727).
T1 sequence (looked up) 1: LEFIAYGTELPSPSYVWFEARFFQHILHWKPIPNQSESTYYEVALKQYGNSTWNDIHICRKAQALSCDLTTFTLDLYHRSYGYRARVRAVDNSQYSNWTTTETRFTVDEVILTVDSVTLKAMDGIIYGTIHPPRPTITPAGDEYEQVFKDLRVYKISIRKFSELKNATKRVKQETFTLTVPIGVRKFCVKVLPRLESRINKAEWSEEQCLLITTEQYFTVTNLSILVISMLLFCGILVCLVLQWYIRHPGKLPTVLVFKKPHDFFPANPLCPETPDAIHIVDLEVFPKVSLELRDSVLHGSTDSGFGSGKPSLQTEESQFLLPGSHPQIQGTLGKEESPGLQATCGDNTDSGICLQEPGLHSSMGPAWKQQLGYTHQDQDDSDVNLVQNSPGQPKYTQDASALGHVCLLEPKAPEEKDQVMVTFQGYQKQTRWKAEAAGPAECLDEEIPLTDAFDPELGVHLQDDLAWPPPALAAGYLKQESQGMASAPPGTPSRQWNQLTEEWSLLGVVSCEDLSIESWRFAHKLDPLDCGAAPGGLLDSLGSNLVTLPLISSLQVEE
T1 sequence (looked up) 2: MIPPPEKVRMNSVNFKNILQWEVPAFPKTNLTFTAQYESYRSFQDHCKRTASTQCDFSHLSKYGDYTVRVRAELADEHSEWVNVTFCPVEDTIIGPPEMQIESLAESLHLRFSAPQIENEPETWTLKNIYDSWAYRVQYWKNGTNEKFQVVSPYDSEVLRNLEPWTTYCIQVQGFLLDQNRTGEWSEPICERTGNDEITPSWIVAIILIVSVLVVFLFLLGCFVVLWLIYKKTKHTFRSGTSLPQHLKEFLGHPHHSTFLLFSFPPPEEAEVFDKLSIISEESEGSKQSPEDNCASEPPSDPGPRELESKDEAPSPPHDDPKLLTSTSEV
Description: cell-based or functional assay.

B1: mouse IL-10 (ligand, UniProt P18893 19-178, looked up)
chain: SRGQYSREDNNCTHFPVGQSHMLLELRTAFSQVKTFFQTKDQLDNILLTDSLMQDFKGYLGCQALSEMIQFYLVEVMPQAEKHGPEIKEHLNSLGEKLKTLRMRLRRCHRFLPCENKSKAVEQVKSDFNKLQDQGVYKAMNEFDIFINCIEAYMMIKMKS
B1: the STAT3 phosphorylation (pY705), flow cytometry, B cells of C57BL/6 mouse splenocytes (CD19 + B cells), EC50 was 55.3 pM and the STAT3 phosphorylation (pY705), flow cytometry, CD3+ T cells of C57BL/6 mouse splenocytes, EC50 is 91.4 pM.

B2: 5KPEG-mIL-10 (ligand, mouse, UniProt P18893 19-178, looked up)
chain: B1 chain
modifications: conjugated to 5 kD PEG; site of attachment not stated
Consider B2, for which the STAT3 phosphorylation (pY705), flow cytometry, B cells of C57BL/6 mouse splenocytes (CD19 + B cells), EC50 stood at 120 pM and the STAT3 phosphorylation (pY705), flow cytometry, CD3+ T cells of C57BL/6 mouse splenocytes, EC50 is 390 pM.
